Results as given in PMC2783235.
Each block holds one substance with its values, some of them ahead of it.

Legend:
[1] = molecular target: I67C (single-Cys mutant of FT-HT-Xa) (S. cerevisiae) (UniProt D6VTK4); experiment: cross-linking
[2] = molecular target: I67C (single-Cys mutant of FT-HT-Xa) (S. cerevisiae) (UniProt D6VTK4); experiment: cross-linking; remark: listed apart in the source
[3] = molecular target: I67C (single-Cys mutant of FT-HT-Xa) (S. cerevisiae) (UniProt D6VTK4); experiment: SDS-PAGE and western blot of membranes
[4] = molecular target: I67C (single-Cys mutant of FT-HT-Xa) (S. cerevisiae) (UniProt D6VTK4); experiment: cross-linking; remark: listed apart in the source
[5] = molecular target: L66C (single-Cys mutant of FT-HT-Xa) (S. cerevisiae) (UniProt D6VTK4); experiment: cross-linking
[6] = molecular target: L66C (single-Cys mutant of FT-HT-Xa) (S. cerevisiae) (UniProt D6VTK4); experiment: cross-linking; remark: listed apart in the source
[7] = molecular target: L66C (single-Cys mutant of FT-HT-Xa) (S. cerevisiae) (UniProt D6VTK4); experiment: SDS-PAGE and western blot of membranes
[8] = molecular target: L66C (single-Cys mutant of FT-HT-Xa) (S. cerevisiae) (UniProt D6VTK4); experiment: cross-linking; remark: listed apart in the source
[9] = molecular target: M69C (single-Cys mutant of FT-HT-Xa) (S. cerevisiae) (UniProt D6VTK4); experiment: cross-linking
[10] = molecular target: M69C (single-Cys mutant of FT-HT-Xa) (S. cerevisiae) (UniProt D6VTK4); experiment: cross-linking; remark: listed apart in the source
[11] = molecular target: M69C (single-Cys mutant of FT-HT-Xa) (S. cerevisiae) (UniProt D6VTK4); experiment: SDS-PAGE and western blot of membranes
[12] = molecular target: M69C (single-Cys mutant of FT-HT-Xa) (S. cerevisiae) (UniProt D6VTK4); experiment: cross-linking; remark: listed apart in the source
[13] = molecular target: T278C (single-Cys mutant of FT-HT-Xa) (S. cerevisiae) (UniProt D6VTK4); experiment: cross-linking
[14] = molecular target: T278C (single-Cys mutant of FT-HT-Xa) (S. cerevisiae) (UniProt D6VTK4); experiment: cross-linking; remark: listed apart in the source
[15] = molecular target: T278C (single-Cys mutant of FT-HT-Xa) (S. cerevisiae) (UniProt D6VTK4); experiment: SDS-PAGE and western blot of membranes
[16] = molecular target: T278C (single-Cys mutant of FT-HT-Xa) (S. cerevisiae) (UniProt D6VTK4); experiment: cross-linking; remark: listed apart in the source
[17] = molecular target: T279C (single-Cys mutant of FT-HT-Xa) (S. cerevisiae) (UniProt D6VTK4); experiment: cross-linking
[18] = molecular target: T279C (single-Cys mutant of FT-HT-Xa) (S. cerevisiae) (UniProt D6VTK4); experiment: cross-linking; remark: listed apart in the source
[19] = molecular target: T279C (single-Cys mutant of FT-HT-Xa) (S. cerevisiae) (UniProt D6VTK4); experiment: SDS-PAGE and western blot of membranes
[20] = molecular target: T279C (single-Cys mutant of FT-HT-Xa) (S. cerevisiae) (UniProt D6VTK4); experiment: cross-linking; remark: listed apart in the source
[21] = molecular target: I67C (single-Cys mutant of FT-HT-Xa) (S. cerevisiae) (UniProt D6VTK4); experiment: radioligand binding
[22] = molecular target: W295C (single-Cys mutant of FT-HT-Xa) (S. cerevisiae) (UniProt D6VTK4); experiment: radioligand binding
[23] = molecular target: V286C (single-Cys mutant of FT-HT-Xa) (S. cerevisiae) (UniProt D6VTK4); experiment: radioligand binding
[24] = molecular target: L284C (single-Cys mutant of FT-HT-Xa) (S. cerevisiae) (UniProt D6VTK4); experiment: radioligand binding
[25] = molecular target: L289C (single-Cys mutant of FT-HT-Xa) (S. cerevisiae) (UniProt D6VTK4); experiment: radioligand binding
[26] = molecular target: S288C (single-Cys mutant of FT-HT-Xa) (S. cerevisiae) (UniProt D6VTK4); experiment: radioligand binding
[27] = molecular target: L64C (single-Cys mutant of FT-HT-Xa) (S. cerevisiae) (UniProt D6VTK4); experiment: radioligand binding
[28] = molecular target: L291C (single-Cys mutant of FT-HT-Xa) (S. cerevisiae) (UniProt D6VTK4); experiment: radioligand binding
[29] = molecular target: L287C (single-Cys mutant of FT-HT-Xa) (S. cerevisiae) (UniProt D6VTK4); experiment: radioligand binding
[30] = molecular target: A296C (single-Cys mutant of FT-HT-Xa) (S. cerevisiae) (UniProt D6VTK4); experiment: radioligand binding
[31] = molecular target: L283C (single-Cys mutant of FT-HT-Xa) (S. cerevisiae) (UniProt D6VTK4); experiment: radioligand binding
[32] = molecular target: V68C (single-Cys mutant of FT-HT-Xa) (S. cerevisiae) (UniProt D6VTK4); experiment: radioligand binding
[33] = molecular target: T65C (single-Cys mutant of FT-HT-Xa) (S. cerevisiae) (UniProt D6VTK4); experiment: radioligand binding
[34] = molecular target: L66C (single-Cys mutant of FT-HT-Xa) (S. cerevisiae) (UniProt D6VTK4); experiment: radioligand binding
[35] = molecular target: S292C (single-Cys mutant of FT-HT-Xa) (S. cerevisiae) (UniProt D6VTK4); experiment: radioligand binding
[36] = molecular target: S293C (single-Cys mutant of FT-HT-Xa) (S. cerevisiae) (UniProt D6VTK4); experiment: radioligand binding
[37] = molecular target: V68C (single-Cys mutant of FT-HT-Xa) (S. cerevisiae) (UniProt D6VTK4); experiment: cross-linking
[38] = molecular target: V68C (single-Cys mutant of FT-HT-Xa) (S. cerevisiae) (UniProt D6VTK4); experiment: cross-linking; remark: listed apart in the source
[39] = molecular target: V68C (single-Cys mutant of FT-HT-Xa) (S. cerevisiae) (UniProt D6VTK4); experiment: SDS-PAGE and western blot of membranes
[40] = molecular target: V68C (single-Cys mutant of FT-HT-Xa) (S. cerevisiae) (UniProt D6VTK4); experiment: cross-linking; remark: listed apart in the source

Substance: I67C (single-Cys mutant of FT-HT-Xa) (from UniProt D6VTK4 1-431) (receptor)
- percent dimer [1]: 18%
- percent dimer [2]: 17.4%
- percent dimer [3]: 19.3%
- percent dimer [4]: 17%

Substance: L66C (single-Cys mutant of FT-HT-Xa) (from UniProt D6VTK4 1-431) (receptor)
- percent dimer [5]: 11.9%
- percent dimer [6]: 13.2%
- percent dimer [7]: 12.3%
- percent dimer [8]: 11.9%

Substance: M69C (single-Cys mutant of FT-HT-Xa) (from UniProt D6VTK4 1-431) (receptor)
- percent dimer [9]: 28.9%
- percent dimer [10]: 17%
- percent dimer [11]: 17.7%
- percent dimer [12]: 14.2%

Substance: T279C (single-Cys mutant of FT-HT-Xa) (from UniProt D6VTK4 1-431) (receptor)
- percent dimer [17]: 10.9%
- percent dimer [18]: 15.8%
- percent dimer [19]: 17.3%
- percent dimer [20]: 10.1%

Substance: Tritiated α-factor ([3H]α-factor) (peptide)
- Kd relative to FT-HT-Xa (relative to FT-HT-Xa) [21]: 2.2
- Kd relative to FT-HT-Xa (relative to FT-HT-Xa) [22]: 1.3
- Kd relative to FT-HT-Xa (relative to FT-HT-Xa) [23]: 1.9
- Kd relative to FT-HT-Xa (relative to FT-HT-Xa) [24]: 1.1
- Kd relative to FT-HT-Xa (relative to FT-HT-Xa) [25]: 2.1
- Kd relative to FT-HT-Xa (relative to FT-HT-Xa) [26]: 4.1
- Kd relative to FT-HT-Xa (relative to FT-HT-Xa) [27]: 2.5
- Kd relative to FT-HT-Xa (relative to FT-HT-Xa) [28]: 1.7
- Kd relative to FT-HT-Xa (relative to FT-HT-Xa) [29]: 1.1
- Kd relative to FT-HT-Xa (relative to FT-HT-Xa) [30]: 0.4
- Kd relative to FT-HT-Xa (relative to FT-HT-Xa) [31]: 4.7
- Kd relative to FT-HT-Xa (relative to FT-HT-Xa) [32]: 1.1
- Kd relative to FT-HT-Xa (relative to FT-HT-Xa) [33]: 1.5
- Kd relative to FT-HT-Xa (relative to FT-HT-Xa) [34]: 0.5
- Kd relative to FT-HT-Xa (relative to FT-HT-Xa) [35]: 0.2
- Kd relative to FT-HT-Xa (relative to FT-HT-Xa) [36]: 2.5

Second part, the substance after the results:

- percent dimer [13]: 12.4%
- percent dimer [14]: 12.5%
- percent dimer [15]: 15.1%
- percent dimer [16]: 65.8%
Substance: T278C (single-Cys mutant of FT-HT-Xa) (from UniProt D6VTK4 1-431) (receptor)

- percent dimer [37]: 98.8%
- percent dimer [38]: 98.3%
- percent dimer [39]: 28.5%
- percent dimer [40]: 99.2%
Substance: V68C (single-Cys mutant of FT-HT-Xa) (from UniProt D6VTK4 1-431) (receptor)
